Results: patent US20240279341A1 (Alector, published 2024)

T1: human MerTK on M2c-differentiated human macrophages (human, UniProt Q12866 21-999)
T1 sequence: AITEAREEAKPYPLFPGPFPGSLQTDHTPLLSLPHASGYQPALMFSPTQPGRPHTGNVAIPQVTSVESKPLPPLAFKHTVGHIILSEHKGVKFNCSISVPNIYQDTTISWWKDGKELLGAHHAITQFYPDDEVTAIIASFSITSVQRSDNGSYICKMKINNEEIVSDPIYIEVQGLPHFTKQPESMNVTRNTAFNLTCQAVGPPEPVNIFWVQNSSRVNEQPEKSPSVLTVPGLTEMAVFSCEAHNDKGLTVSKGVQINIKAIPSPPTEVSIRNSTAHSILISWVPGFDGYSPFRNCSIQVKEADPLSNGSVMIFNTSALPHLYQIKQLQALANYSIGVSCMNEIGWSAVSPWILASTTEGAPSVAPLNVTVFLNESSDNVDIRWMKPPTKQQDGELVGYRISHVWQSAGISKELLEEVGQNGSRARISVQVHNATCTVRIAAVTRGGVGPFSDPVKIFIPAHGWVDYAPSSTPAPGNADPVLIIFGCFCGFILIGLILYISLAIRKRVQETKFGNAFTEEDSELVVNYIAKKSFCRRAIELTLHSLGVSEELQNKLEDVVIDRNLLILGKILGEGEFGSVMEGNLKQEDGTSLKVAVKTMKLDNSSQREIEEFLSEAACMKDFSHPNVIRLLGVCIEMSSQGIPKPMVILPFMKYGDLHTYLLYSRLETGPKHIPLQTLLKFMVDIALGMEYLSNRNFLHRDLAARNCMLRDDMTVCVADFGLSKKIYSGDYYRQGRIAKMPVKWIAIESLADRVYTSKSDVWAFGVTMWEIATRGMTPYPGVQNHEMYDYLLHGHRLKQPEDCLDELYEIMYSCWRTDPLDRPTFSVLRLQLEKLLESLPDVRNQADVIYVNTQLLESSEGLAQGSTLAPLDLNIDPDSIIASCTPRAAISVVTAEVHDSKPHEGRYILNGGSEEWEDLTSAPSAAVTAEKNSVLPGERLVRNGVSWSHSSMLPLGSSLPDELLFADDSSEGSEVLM

T2: recombinant murine MerTK extracellular domain (mouse, UniProt Q60805 19-497)
T2 construct: also called moMerTK; mouse MerTK; not shown: PolyHis tag or TEVS/Thrombin/murine IgG2a Fc tag (a commercial human IgG1 Fc fusion is also mentioned); which form was t
T2 sequence: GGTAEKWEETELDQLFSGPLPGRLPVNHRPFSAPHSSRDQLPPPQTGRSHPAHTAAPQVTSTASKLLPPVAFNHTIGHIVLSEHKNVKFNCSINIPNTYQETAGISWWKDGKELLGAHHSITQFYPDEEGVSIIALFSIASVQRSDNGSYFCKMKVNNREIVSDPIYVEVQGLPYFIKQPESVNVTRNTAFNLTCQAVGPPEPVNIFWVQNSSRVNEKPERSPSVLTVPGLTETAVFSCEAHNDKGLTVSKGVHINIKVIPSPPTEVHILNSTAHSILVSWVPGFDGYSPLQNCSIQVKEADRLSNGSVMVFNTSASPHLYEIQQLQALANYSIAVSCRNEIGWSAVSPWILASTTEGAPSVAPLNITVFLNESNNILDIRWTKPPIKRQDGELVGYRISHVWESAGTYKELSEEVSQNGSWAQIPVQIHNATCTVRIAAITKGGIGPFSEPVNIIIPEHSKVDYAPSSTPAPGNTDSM

T3: human MerTK overexpressed on CHO cells (human, UniProt Q12866 21-999)
T3 construct: also called CHO-huMerTK OE; CHO-human MerTK OE cells
T3 sequence: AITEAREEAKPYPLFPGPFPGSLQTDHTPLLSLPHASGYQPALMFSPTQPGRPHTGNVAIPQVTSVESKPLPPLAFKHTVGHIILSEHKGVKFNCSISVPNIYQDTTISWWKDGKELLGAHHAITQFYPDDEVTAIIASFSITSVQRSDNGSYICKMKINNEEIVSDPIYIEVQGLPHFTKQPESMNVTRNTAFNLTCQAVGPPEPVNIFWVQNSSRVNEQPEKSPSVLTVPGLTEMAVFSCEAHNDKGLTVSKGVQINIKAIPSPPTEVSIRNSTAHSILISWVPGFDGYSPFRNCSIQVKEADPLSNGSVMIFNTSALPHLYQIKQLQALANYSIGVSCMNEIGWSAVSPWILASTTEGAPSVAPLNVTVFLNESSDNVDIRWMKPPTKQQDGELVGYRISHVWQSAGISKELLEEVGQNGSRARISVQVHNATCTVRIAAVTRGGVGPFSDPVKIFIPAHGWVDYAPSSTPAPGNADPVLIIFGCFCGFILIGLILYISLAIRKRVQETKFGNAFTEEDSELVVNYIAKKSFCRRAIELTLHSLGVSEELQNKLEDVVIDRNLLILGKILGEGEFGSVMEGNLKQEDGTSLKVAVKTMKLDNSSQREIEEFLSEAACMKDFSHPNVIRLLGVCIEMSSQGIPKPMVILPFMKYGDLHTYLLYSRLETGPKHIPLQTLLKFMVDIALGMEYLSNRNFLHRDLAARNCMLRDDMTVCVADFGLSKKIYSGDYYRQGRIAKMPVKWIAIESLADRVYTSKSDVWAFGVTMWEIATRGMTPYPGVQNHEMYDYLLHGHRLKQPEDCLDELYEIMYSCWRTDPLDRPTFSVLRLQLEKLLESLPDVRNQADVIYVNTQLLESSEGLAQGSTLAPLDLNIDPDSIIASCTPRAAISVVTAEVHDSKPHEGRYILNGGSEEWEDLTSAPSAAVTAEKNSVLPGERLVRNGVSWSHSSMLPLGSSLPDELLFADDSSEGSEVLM


Key:
[1] = target: T1, human MerTK on M2c-differentiated human …; test: cell-based or functional assay
[2] = target: T2, recombinant murine MerTK extracellular …; test: SPR (Carterra LSA), antibody immobilized, MerTK ECD as analyte
Protocol: (§1) Binding kinetics of bispecific anti-MerTK:anti-PDL1 antibodies of the present disclosure to human, cyno, and murine MerTK were evaluated using a Carterra LSA instrument. […] A HC30 sensor chip (Carterra) was activated using the single channel flow cell with a 7-minute injection of a 1:1:1 mixture of 100 mM MES pH 5.5, 100 mM sulfo-NHS, 400 mM EDC (all reconstituted in MES pH 5.5; 100 μl of each mixed in vial immediately before running assay). After switching to the multi-channel array flow cell, the antibodies were injected over the activated chip in a 96-spot array for 15 minutes. A duplicate injection of the antibodies on a second block of the chip was spotted as before. The remaining unconjugated active groups on the chip were then blocked by injecting 1M Ethanolamine pH 8.5 (Carterra) for 7 minutes using the single channel flow cell.
(§2) After priming with running buffer (HBS-TE, Carterra) with 0.5 mg/ml BSA (Sigma), the immobilized anti-MerTK antibodies were tested for their ability to bind to several forms of recombinant MerTK extracellular domain, including that of human, cynomolgus, and mouse orthologs as described above. Estimates of affinity were generated by injecting each analyte over the entire antibody array using the single channel flow cell. […] Dissociation was followed for 300 seconds before regenerating after each injection with 2×30 seconds of 10 mM Glycine pH2.5. Three buffer blanks were run between each series (one species per series). After all concentrations of all three species of MerTK were injected, a duplicate set of injections was performed, so that each concentration for all three species was injected in widely spaced duplicates. Data were processed and analyzed using NextGenKIT high-throughput kinetics analysis software (Carterra).

[3] = target: T3, human MerTK overexpressed on CHO cells; test: flow cytometry on CHO-huMerTK OE cells, Dylight650-conjugated antibody; average FACS Kd from Prism fit of MFI
Description: (§3) Human macrophages were differentiated from human monocytes for 7 days in the presence of human M-CSF, resulting in M2c-differentiated human macrophages. After 7 days, the differentiated human macrophages were harvested (by scraping), resuspended in PBS, and plated on 96-well plates for use. CHO cells overexpressing human MerTK (CHO-huMerTK OE), CHO cells overexpressing human PDL1 (CHO-huPDL1 OE), and M2c-differentiated human macrophages were stained with Dylight650-conjugated bispecific anti-MerTK:anti-PDL1 antibodies, or bivalent anti-MerTK antibodies for 30 min on ice. A range of antibody concentrations were used in these studies to obtain binding curves. All antibodies tested in these studies were IgG1 having Fc regions comprising LALAPS mutations. Cells were fixed and then acquired on a BD FACS Canto II cytometer. The mean fluorescence intensity (MFI) was calculated using FlowJo software and Kd value was calculated using Prism software.

[4] = target: T1, human MerTK on M2c-differentiated human …; test: flow cytometry on M2c-differentiated human macrophages, Dylight650-conjugated antibody; average FACS Kd from Prism fit of MFI
Description: as §3

[5] = target: T2, recombinant murine MerTK extracellular …; test: SPR (Carterra LSA), antibody immobilized, MerTK ECD as analyte; estimate, fits not ideal for a 1:1 model
Protocol: as §1, §2

| Binder | Average Efferocytosis blocking IC50 [1] [nM] | binding result [2] | Kd [3] [nM] | Kd [4] [nM] | Kd [5] [nM] |
| --- | --- | --- | --- | --- | --- |
| bivalent anti-MerTK antibody MTK-16.2 (full IgG) (antibody, V domains shown) VH: QVQLVQSGSELKKPGASVKVSCKASGYTFTNHGMNWVRQAPGQGLEWMGWINTYTGEPTYADDFKGRFVFSLDTSVSTAYLQISSLKAEDTAVYYCARKGVTAARYFDYWGQGTLVTVSS VL: DIQMTQSPSSLSASVGDRVTITCRASQNVRTAVAWYQQKPGKAPKRLIYLASNRHTGVPSRFSGSGSGTEFTLTISNLQPEDFATYYCLQHWNYPLTFGGGTKLEIKR | 0.436 | no binding | 42.5 | 51.9 | – |
| monovalent anti-MerTK antibody MTK-33.11 (antibody, V domains shown) VH: QVQLVQSGAEVKKPGASVKVSCKASGYTFTSYWMHWVRQAPGQGLEWIGVIDPSDNYINYNQKFQGRVTMTRDTSTSTVYMELSSLRSEDTAVYYCAREAWTRGYFDYWGQGTLVTVSS VL: DIQMTQSPSSLSASVGDRVTITCQASRSVRNTVAWYQQKPGKAPKLLIYYASNRYTGVPSRFSGSGSGTDFTFTISSLQPEDIATYYCQQDYRSPFTFGQGTKLEIK | 4.45 | – | 4.97 | 9.96 | 40 |
| bivalent anti-MerTK antibody MTK-33.11 (full IgG) (antibody, V domains shown) VH: QVQLVQSGAEVKKPGASVKVSCKASGYTFTSYWMHWVRQAPGQGLEWIGVIDPSDNYINYNQKFQGRVTMTRDTSTSTVYMELSSLRSEDTAVYYCAREAWTRGYFDYWGQGTLVTVSS VL: DIQMTQSPSSLSASVGDRVTITCQASRSVRNTVAWYQQKPGKAPKLLIYYASNRYTGVPSRFSGSGSGTDFTFTISSLQPEDIATYYCQQDYRSPFTFGQGTKLEIKR | 0.341 | – | 0.439 | 2 | 50 |
| bispecific anti-MerTK MTK-33.11:anti-PDL1 antibody (bispecific antibody, V domains shown) VH 1: QVQLVQSGAEVKKPGASVKVSCKASGYTFTSYWMHWVRQAPGQGLEWIGVIDPSDNYINYNQKFQGRVTMTRDTSTSTVYMELSSLRSEDTAVYYCAREAWTRGYFDYWGQGTLVTVSS VL 1: DIQMTQSPSSLSASVGDRVTITCQASRSVRNTVAWYQQKPGKAPKLLIYYASNRYTGVPSRFSGSGSGTDFTFTISSLQPEDIATYYCQQDYRSPFTFGQGTKLEIK VH 2: not shown VL 2: not shown | 4.42 | – | 3.25 | – | 40 |

More lines, in order of falling Kd [3], values ahead:

| Average Efferocytosis blocking IC50 [1] [nM] | binding result [2] | Kd [3] [nM] | Kd [4] [nM] | Kd [5] [nM] | Binder |
| --- | --- | --- | --- | --- | --- |
| – | no binding | 48.3 | – | – | bispecific anti-MerTK MTK-16.2:anti-PDL1 antibody (bispecific antibody, V domains shown) VH 1: QVQLVQSGSELKKPGASVKVSCKASGYTFTNHGMNWVRQAPGQGLEWMGWINTYTGEPTYADDFKGRFVFSLDTSVSTAYLQISSLKAEDTAVYYCARKGVTAARYFDYWGQGTLVTVSS VL 1: DIQMTQSPSSLSASVGDRVTITCRASQNVRTAVAWYQQKPGKAPKRLIYLASNRHTGVPSRFSGSGSGTEFTLTISNLQPEDFATYYCLQHWNYPLTFGGGTKLEIK VH 2: not shown VL 2: not shown |
| 37.9 | no binding | 40.5 | 77.8 | – | monovalent anti-MerTK antibody MTK-16.2 (antibody, V domains shown) VH: QVQLVQSGSELKKPGASVKVSCKASGYTFTNHGMNWVRQAPGQGLEWMGWINTYTGEPTYADDFKGRFVFSLDTSVSTAYLQISSLKAEDTAVYYCARKGVTAARYFDYWGQGTLVTVSS VL: DIQMTQSPSSLSASVGDRVTITCRASQNVRTAVAWYQQKPGKAPKRLIYLASNRHTGVPSRFSGSGSGTEFTLTISNLQPEDFATYYCLQHWNYPLTFGGGTKLEIK |
